Data on 24 sequences can be found in the supplement of paper PMC10899765.

Where “and” joins values, the source holds several entries; their conditions need not be identical. Equal entries are not always repeated.

Settings in all cases: 20 nM; 72 h
Series [1] concerns MCF10A. Kind of series: one-nucleolus phenotype percent effect (relative to siNT 0% and siNOL11 100%); higher = more cells with one nucleolus (ribosome biogenesis inhibition). The procedure:
(§1)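 After 72 h, cells were fixed and stained with Hoechst and anti-fibrillarin, and nucleoli per nucleus were counted with CellProfiler. Values are plate-adjusted percent effect for the one-nucleolus and 5+ nucleoli phenotypes, normalised to siNT (0%) and to the positive controls siNOL11 or siKIF11 (100%), as the mean of biological triplicates. Percent viability is the nuclei count relative to siNT.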

Series [2] deals with MCF10A. Kind of series: 5+ nucleoli phenotype percent effect (relative to siNT 0% and siKIF11 100%); higher = more cells with five or more nucleoli. The procedure:
as §1

For series [3], the system named is MCF10A. Kind of series: percent viability (nuclei count relative to siNT); higher = more viable cells. Here is the method:
as §1

Turning to “UUGCUCUGCUCCCCCGCCCCCAG [hsa-miR-6805-3p]”, in the series with MCF10A [1], the “one-nucleolus phenotype percent effect” value was -15.8%. The “5+ nucleoli phenotype percent effect” value in the series on MCF10A [2] worked out at 43.1%. Besides, the percent viability in the series on MCF10A [3] worked out at 36.2%.

“UAGCAAUACAGUACAAAUAUAGU [hsa-miR-4703-5p]”: in the series with MCF10A [1], the “one-nucleolus phenotype percent effect” value is -22%. Moreover, in the series with MCF10A [2], the “5+ nucleoli phenotype percent effect” value is 32.3%. For the same sequence, the percent viability in the series with MCF10A [3] turned out to be 131%.

Regarding “CAUCAGAAUUCAUGGAGGCUAG [hsa-miR-2115-3p]”, the “one-nucleolus phenotype percent effect” value in the series with MCF10A [1] is 15.3%. In the series with MCF10A [2], the “5+ nucleoli phenotype percent effect” value was -5.23%. Besides, the percent viability in the series with MCF10A [3] was 39%.

Consider ACACCCUCUUUCCCUACCGCC [hsa-miR-6865-3p], for which the “one-nucleolus phenotype percent effect” value with MCF10A [1] was -26%. Also, the “5+ nucleoli phenotype percent effect” value in the series with MCF10A [2] was found to be 40.5%. Also, in the series with MCF10A [3], the percent viability is 86.3%.

As for UGGAUGACAGUGGAGGCCU [hsa-miR-6744-5p], the “one-nucleolus phenotype percent effect” value in the series with MCF10A [1] worked out at 37.8%. The “5+ nucleoli phenotype percent effect” value with MCF10A [2] was -19.1%. Besides, the percent viability in the series on MCF10A [3] was 20.5%.

As to “ACAGGUGAGGUUCUUGGGAGCC [hsa-miR-125a-3p]”, the “one-nucleolus phenotype percent effect” value with MCF10A [1] is 5.16%. In addition, in the series with MCF10A [2], the “5+ nucleoli phenotype percent effect” value was -0.517%. Moreover, the percent viability with MCF10A [3] was determined as 62.4%.

For the sequence CAAACCCCUGUCUACCCGCAG [hsa-miR-6771-3p], the “one-nucleolus phenotype percent effect” value with MCF10A [1] was 15.7%. Besides, the “5+ nucleoli phenotype percent effect” value in the series with MCF10A [2] was -19.1%. In the series on MCF10A [3], the percent viability was determined as 40.5%.

As for GUGUGACCACCGUUCCUGCAG [hsa-miR-6808-3p], the “one-nucleolus phenotype percent effect” value in the series with MCF10A [1] came out at 28.3%. The “5+ nucleoli phenotype percent effect” value in the series with MCF10A [2] was -25.4%. For the same sequence, the percent viability in the series on MCF10A [3] was 27.3%.

Regarding UGUCUGCCCGCAUGCCUGCCUCU [hsa-miR-346], in the series on MCF10A [1], the “one-nucleolus phenotype percent effect” value was determined as 31%. In addition, in the series on MCF10A [2], the “5+ nucleoli phenotype percent effect” value was -26.4%. Moreover, the percent viability in the series with MCF10A [3] worked out at 32.5%.

For UGUUGGGAUUCAGCAGGACCAU [hsa-miR-4425], the “one-nucleolus phenotype percent effect” value with MCF10A [1] is 19.2%. Besides, the “5+ nucleoli phenotype percent effect” value in the series with MCF10A [2] was -29%. Further, in the series with MCF10A [3], the percent viability was determined as 27.3%.

Take AGAAGGAAAUUGAAUUCAUUUA [hsa-miR-1252]: the “one-nucleolus phenotype percent effect” value in the series on MCF10A [1] is -13.6%. For the same sequence, the “5+ nucleoli phenotype percent effect” value with MCF10A [2] was 32.3%. In the series on MCF10A [3], the percent viability turned out to be 148%.

Regarding UGGGGCUCAGCGAGUUU [hsa-miR-4283], the “one-nucleolus phenotype percent effect” value in the series on MCF10A [1] is 24.3%. For the same sequence, in the series with MCF10A [2], the “5+ nucleoli phenotype percent effect” value is -10.7%. In addition, the percent viability in the series on MCF10A [3] is 17.3%.

For UCUUACUCCCUCAGGCACUG [hsa-miR-550b-3p], the “one-nucleolus phenotype percent effect” value in the series with MCF10A [1] was 1.54%. Besides, in the series on MCF10A [2], the “5+ nucleoli phenotype percent effect” value was -5.7%. Besides, the percent viability in the series with MCF10A [3] stood at 31%.

Take “UACUCUGGAGAGUGACAAUCAUG [hsa-miR-514a-5p]”: the “one-nucleolus phenotype percent effect” value in the series with MCF10A [1] was -13.3% and -15.4%. Further, the “5+ nucleoli phenotype percent effect” value with MCF10A [2] was 29.4% and 19%. In the series on MCF10A [3], the percent viability is 56.4% and 66.9%.

For the sequence GGAGACUGAUGAGUUCCCGGGA [hsa-miR-873-3p], the “one-nucleolus phenotype percent effect” value in the series with MCF10A [1] was -6.55%. In the series on MCF10A [2], the “5+ nucleoli phenotype percent effect” value was -5.61%. In addition, the percent viability with MCF10A [3] came out at 106%.

In the case of AAUCAUACACGGUUGACCUAUU [hsa-miR-154-3p], the “one-nucleolus phenotype percent effect” value with MCF10A [1] was -0.992%. Besides, the “5+ nucleoli phenotype percent effect” value in the series with MCF10A [2] is -5.26%. In the series with MCF10A [3], the percent viability stood at 67.2%.

With “UAAAUUUCACCUUUCUGAGAAGG [hsa-miR-513a-3p]”, in the series on MCF10A [1], the “one-nucleolus phenotype percent effect” value is 18%. Further, the “5+ nucleoli phenotype percent effect” value in the series with MCF10A [2] is -3.52%. In addition, the percent viability with MCF10A [3] was found to be 49%.

Take “AAAGUGCAUCCUUUUAGAGGUU [hsa-miR-519b-3p]”: the “one-nucleolus phenotype percent effect” value with MCF10A [1] is -24%. The “5+ nucleoli phenotype percent effect” value with MCF10A [2] stood at 75.9%. Also, in the series on MCF10A [3], the percent viability came out at 104%.

Regarding “AGGCCAUCAGCAGUCCAAUGAA [hsa-miR-4529-5p]”, in the series with MCF10A [1], the “one-nucleolus phenotype percent effect” value is 2.62%. For the same sequence, the “5+ nucleoli phenotype percent effect” value with MCF10A [2] came to 9.36%. Moreover, the percent viability in the series on MCF10A [3] came out at 52.1%.

UCUCCCAACCCUUGUACCAGUG [hsa-miR-150-5p]: the “one-nucleolus phenotype percent effect” value with MCF10A [1] is -2.57%. The “5+ nucleoli phenotype percent effect” value with MCF10A [2] turned out to be 26.7%. The percent viability in the series with MCF10A [3] stood at 224%.

In the case of UGGCAGUGUAUUGUUAGCUGGU [hsa-miR-449a], the “one-nucleolus phenotype percent effect” value in the series on MCF10A [1] is 36.9%. Besides, in the series on MCF10A [2], the “5+ nucleoli phenotype percent effect” value was -16.3%. Moreover, in the series on MCF10A [3], the percent viability is 14%.

Take AAAAUGAAAUGAGCCCAGCCCA [hsa-miR-3646]: the “one-nucleolus phenotype percent effect” value in the series with MCF10A [1] was -19.1%. In addition, the “5+ nucleoli phenotype percent effect” value in the series on MCF10A [2] turned out to be 21.9%. In addition, in the series on MCF10A [3], the percent viability came out at 63.5%.

Consider UGAAACAUACACGGGAAACCUC [hsa-miR-494], for which, in the series with MCF10A [1], the “one-nucleolus phenotype percent effect” value is 34.9%. The “5+ nucleoli phenotype percent effect” value with MCF10A [2] was -37.3%. Also, in the series on MCF10A [3], the percent viability was 24.5%.

In the case of “AAAGAUAGACAAUUGGCUAAAU [hsa-miR-4662a-3p]”, in the series on MCF10A [1], the “one-nucleolus phenotype percent effect” value is -23.7%. Further, the “5+ nucleoli phenotype percent effect” value in the series with MCF10A [2] was 4.11%. In addition, in the series with MCF10A [3], the percent viability amounted to 83.7%.
